In patent publication US7186551B1, “3′-phosphoadenosine -5′-phosphosulfate synthetase 2 (PAPSS2) sequence variants” (Mayo Foundation for Medical Education and Research, priority 2001, dated 2007):

Experiments:
PAPSS2 [1] = target: T1, PAPSS2 (Homo sapiens, UniProt O95340); test: PAPSS activity of cells transfected with wild type PAPSS2 construct versus empty vector / endogenous activity; assay type: biochemical; conditions: loxP-modified p91023(b) vector, COS-1 cells
T1 construct: the wild-type full-length open reading frame (ORF) of the human PAPSS2 cDNA; made in house; host or cells: COS-1 or HepG2 cells, transient transfection; cytosol not purified
T1 sequence (O95340 1-614 R426C): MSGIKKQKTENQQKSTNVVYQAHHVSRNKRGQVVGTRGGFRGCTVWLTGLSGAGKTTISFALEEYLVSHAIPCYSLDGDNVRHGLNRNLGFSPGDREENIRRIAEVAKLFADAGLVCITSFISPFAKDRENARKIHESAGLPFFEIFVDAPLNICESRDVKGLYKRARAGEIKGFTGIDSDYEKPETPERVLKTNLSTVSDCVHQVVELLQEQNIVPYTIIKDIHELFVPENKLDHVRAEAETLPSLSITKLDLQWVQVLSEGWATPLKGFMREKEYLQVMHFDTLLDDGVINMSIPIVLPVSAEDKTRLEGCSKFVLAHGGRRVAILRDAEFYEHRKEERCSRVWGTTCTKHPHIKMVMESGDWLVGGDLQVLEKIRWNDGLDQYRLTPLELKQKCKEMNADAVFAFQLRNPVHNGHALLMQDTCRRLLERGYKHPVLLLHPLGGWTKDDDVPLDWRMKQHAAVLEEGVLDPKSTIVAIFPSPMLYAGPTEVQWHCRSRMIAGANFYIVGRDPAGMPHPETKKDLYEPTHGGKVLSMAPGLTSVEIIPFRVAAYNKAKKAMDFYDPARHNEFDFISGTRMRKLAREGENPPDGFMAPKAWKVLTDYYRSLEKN
Experimental: Initial expression studies were performed with the commercially available pcDNA4/HisMax-E (pcDNA4) acceptor vector (Invitrogen). Specifically, the pUni donor vector, with and without the PAPSS2 cDNA insert, was combined with the pcDNA4 acceptor vector by Cre recombinase through the loxP sites present in both donor and acceptor vectors. The resultant fusion constructs (pUni/pcDNA4) then were used to transfect either COS-1 or HepG2 cells. However, the construct with the wild type PAPSS2 cDNA insert expressed only about 2-fold higher PAPSS activity in both COS-1 and HepG2 cells than did the control “empty” pUni-pcDNA4. This low signal/noise ratio was due in part to the high levels of endogenous PAPSS activity in mammalian cells. Obviously, this situation would have made it difficult to study the functional significance of PAPSS2 non-synonymous cSNPs.
The loxP site required for Cre recombinase-mediated recombination thus was adapted for cloning into the p91023(b) cloning site so a recombination approach could be used to clone PAPSS2 cDNAs into this vector. A 133 base pair pcDNA4 DNA segment (nucleotides 1080–1212) containing the N-terminal His-tag and the loxP site was amplified by PCR, and this amplicon was ligated into the EcoRI site of p91023(b). As a result, the loxP-modified p91023(b) acceptor vector was also able to add an N-terminal His-tag to the expressed protein. […]

PAPSS2 [2] = test: PAPSS2 enzyme activity, coupled radiochemical assay (PAPS generation then SULT1E1-catalyzed sulfation of [3H]estradiol) with COS-1 expressed recombinant allozymes; assay type: biochemical, human; conditions: His-tagged recombinant allozyme, loxP-modified p91023(b) vector, COS-1 cells, corrected for transfection efficiency
Source text: Variant alleles of the four non-synonymous PAPSS2 cSNPs observed during the resequencing experiments were created using the QuickChange Site-Directed Mutagenesis Kit (Stratagene, La Jolla, Calif.), with wild type PAPSS2 cDNA in pUni as template. The sequence of the pUni insert was confirmed by completely sequencing both strands before recombination with the loxP-modified p91023(b) acceptor vector. pUni donor vectors that contained wild type and variant PAPSS2 cDNAs, as well as empty pUni, then were combined with the loxP-modified p91023(b) acceptor vector to generate the final expression constructs. In all cases, the fusion junctions of resultant expression constructs were sequenced to confirm that the construct was a dimer consisting of only a single donor and a single acceptor vector. These expression constructs were used to transfect COS-1 cells using TransFast™ reagent (Promega) with a 1:1 charge ratio. pSV-β-galactosidase (Promega) was co-transfected with each construct as an internal control to correct for transfection efficiency. Transfected COS-1 cells were harvested after 48 hours and were homogenized with a Polytron homogenizer (Brinkmann Instruments, Westbury, N.Y.) in 25 mM potassium phosphate buffer, pH 7.8, containing 1 mM dithiothreitol (DTT) and 1 mM EDTA. The homogenates were centrifuged at 15,000 g for 15 minutes, and the resultant supernatant preparations were used to perform enzyme assays, substrate kinetic studies and Western blot analyses. In some cases, aliquots of these cytosol preparations were stored at −80° C. prior to assay.
PAPSS2 Enzyme Activity: PAPSS2 activity was measured with a coupled radiochemical assay. See Xu et al., 2001, supra. Briefly, PAPS is generated from ATP and Na2SO4 in a PAPSS2-catalyzed reaction. The generated PAPS is then used as a substrate for the SULT1E1-catalyzed sulfate conjugation of [2,4,6,7-^3H]estradiol, a radioactively labeled sulfate acceptor substrate. The cell homogenate preparations of recombinant PAPSS2 allozymes described above were used for the activity studies without any further purification. The protein concentration of each recombinant protein preparation was determined by the dye-binding method of Bradford with bovine serum albumin (BSA) as a standard.
PAPS synthesis was catalyzed by recombinant wild-type PAPSS2 or PAPSS2 allozymes (present in the cell homogenate preparations described above) in the presence of 1 mM ATP, 16 mM Na2SO4, 1 mM MgCl2, and 2 mM DTT in 60 mM glycine-NaOH buffer, pH 8.6. Blank samples included the same quantity of COS-1 cytosol protein from cells that had been transfected with empty expression vector to make it possible to correct for endogenous activity. Reaction mixtures were incubated at 37° C. for 20 minutes, and then terminated by heating at 100° C. for 1 minute. An aliquot from this PAPS-generating reaction was then added to a second, coupled reaction containing recombinant human SULT1E1 isolated from COS-1 cells transfected with a SULT1E1 expression construct (see Aksoy et al., Biochem. Biophys. Res. Commun., 200:1621–1629 (1994)). The coupled reaction also included 27 nM [2,4,6,7-^3H]estradiol, 8 mM DTT and 1.25 mM MgCl2 in 10 mM potassium phosphate buffer, pH 6.5. The second, SULT1E1-catalyzed reactions were incubated at 37° C. for 20 minutes, and then terminated by the addition of KOH, followed by organic solvent extraction performed with chloroform. Radioactivity of the sulfate conjugated [2,4,6,7-^3H]estradiol in the aqueous phase after organic solvent extraction was then measured in a liquid scintillation counter. PAPSS activities of recombinant PAPSS2 allozymes were compared after correction for transfection efficiency by measuring the activity of cotransfected P-galactosidase. β-Galactosidase activity in the COS-1 cell preparations was measured with the β-Galactosidase Assay System (Promega) as described by the manufacturer. […]

increase in PAPSS activity over basal endogenous activity (PAPSS2 [1]): greater than 7 fold
% WT activity (PAPSS2 [2]): 100%
B1: wild type: reference human PAPSS2 polypeptide (SEQ ID NO:9, GenBank AF091242), recombinantly expressed in COS-1 cells (protein, listed as Homo sapiens)
chain: T1 sequence (O95340 1-614 R426C)
